In patent publication US20190367606A1 (CENTRE FOR DRUG RESEARCH AND DEVELOPMENT, published 2019):

Legend:
human podocalyxin [1] = biological target: T1, human podocalyxin (human, UniProt O00592 23-558); assay: flow cytometry, control antibody, A172 cells
T1 construct: also called hPodo; hPodocalyxin
T1 sequence: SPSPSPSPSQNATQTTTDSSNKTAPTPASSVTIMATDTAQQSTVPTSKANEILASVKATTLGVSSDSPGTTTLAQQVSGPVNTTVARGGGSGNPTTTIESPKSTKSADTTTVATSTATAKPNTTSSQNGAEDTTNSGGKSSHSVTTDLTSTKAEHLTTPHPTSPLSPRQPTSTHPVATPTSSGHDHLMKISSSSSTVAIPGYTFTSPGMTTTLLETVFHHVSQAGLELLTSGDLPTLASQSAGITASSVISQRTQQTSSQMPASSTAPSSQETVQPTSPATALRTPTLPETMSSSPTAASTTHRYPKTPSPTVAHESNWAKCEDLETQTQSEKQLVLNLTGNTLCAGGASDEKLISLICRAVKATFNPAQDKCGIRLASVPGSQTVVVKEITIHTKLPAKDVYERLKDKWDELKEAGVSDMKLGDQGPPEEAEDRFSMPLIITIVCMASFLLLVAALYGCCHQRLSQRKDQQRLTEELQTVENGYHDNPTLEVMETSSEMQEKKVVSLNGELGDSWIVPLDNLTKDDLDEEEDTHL

human podocalyxin [2] = biological target: T1, human podocalyxin; assay: flow cytometry, control antibody, MCF7 cells
human podocalyxin [3] = biological target: T1, human podocalyxin; assay: flow cytometry, control antibody, CaOV3 cells
human podocalyxin [4] = biological target: T1, human podocalyxin; assay: flow cytometry, control antibody, HUVEC cells
human podocalyxin [5] = biological target: T1, human podocalyxin; assay: flow cytometry, control antibody, T47-D cells
human podocalyxin [6] = biological target: T1, human podocalyxin; assay: flow cytometry, control antibody, OVCAR3 cells
human podocalyxin [7] = biological target: T1, human podocalyxin; assay: flow cytometry, control antibody, 293 HEK cells
human podocalyxin [8] = biological target: T1, human podocalyxin; assay: flow cytometry, control antibody, OVCAR10 cells
human podocalyxin [9] = biological target: T1, human podocalyxin; assay: flow cytometry, control antibody, MDA-MB-231 cells
human podocalyxin [10] = biological target: T1, human podocalyxin; assay: flow cytometry, well H03 (right column, cell type not labelled: MDA-MB-231 or MDA-MB-231/hPodo); vertical gate at FL4-H about 10^3.2; the gate differs from that of the Ab-1 panels
human podocalyxin [11] = biological target: T1, human podocalyxin; assay: flow cytometry, well H01 (left column, cell type not labelled: MDA-MB-231 or MDA-MB-231/hPodo); vertical gate at FL4-H about 10^3.2, cutting the right edge of the control population; the gate differs from that of the Ab-1 panels
human podocalyxin [12] = biological target: T1, human podocalyxin; assay: cross competition FACS, MDA-MB-231 cells; FACS Buffer row (no unlabelled antibody); B-mlgG1 5 ug/mL (control)
human podocalyxin [13] = biological target: T1, human podocalyxin; assay: cross competition FACS, MDA-MB-231 cells; row antibody (isotype control) unlabelled 25 ug/mL first; competitor (detected): B-3G2.2 5 ug/mL
human podocalyxin [14] = biological target: T1, human podocalyxin; assay: cross competition FACS, MDA-MB-231 cells; row antibody (isotype control) unlabelled 25 ug/mL first; competitor (detected): B-mlgG1 5 ug/mL (control)
human podocalyxin [15] = biological target: T1, human podocalyxin; assay: cross competition FACS, MDA-MB-231 cells; row antibody (isotype control) unlabelled 25 ug/mL first; competitor (detected): B-Ova 12 5 ug/mL (control)
human podocalyxin [16] = biological target: T1, human podocalyxin; assay: cross competition FACS, MDA-MB-231 cells; row antibody (isotype control) unlabelled 25 ug/mL first; competitor (detected): biotinylated Rb/Hu Podo83 5 ug/mL
human podocalyxin [17] = biological target: T1, human podocalyxin; assay: flow cytometry, control, 1:5, MDA-MB-231 cells
human podocalyxin [18] = biological target: T1, human podocalyxin; assay: flow cytometry, control, Neat, MDA-MB-231 cells
human podocalyxin [19] = biological target: T1, human podocalyxin; assay: flow cytometry, control, 1:125, MDA-MB-231 cells
human podocalyxin [20] = biological target: T1, human podocalyxin; assay: flow cytometry, control, 2:15 (so in the source), MDA-MB-231 cells
human podocalyxin [21] = biological target: T1, human podocalyxin; assay: flow cytometry, control, 1:5, hPodo/MDA-MB-231 transient transfectants
human podocalyxin [22] = biological target: T1, human podocalyxin; assay: flow cytometry, control, Neat, hPodo/MDA-MB-231 transient transfectants
human podocalyxin [23] = biological target: T1, human podocalyxin; assay: flow cytometry, control, 1:125, hPodo/MDA-MB-231 transient transfectants
human podocalyxin [24] = biological target: T1, human podocalyxin; assay: flow cytometry, control, 2:15 (so in the source), hPodo/MDA-MB-231 transient transfectants
human podocalyxin [25] = biological target: T1, human podocalyxin; assay: flow cytometry, control antibody, SKOV3 cells
human podocalyxin [26] = biological target: T1, human podocalyxin; assay: flow cytometry, supernatant 1:5, MDA-MB-231 cells
Procedure: (§1) The following antibodies were transiently transfected in 293HEK cells, transfected cells were incubated for 96 hours, antibody containing supernatant was then serially titrated in FACS sample buffer. The following supernatants were used as test samples:
(§2) MDA transient transfectants were established as essentially described above in Example 1. MDA transient transfectants and MDA-MB-231 cells were seeded in 96-well v bottom plates at 75,000 cells/well. Cells were pelleted by centrifugation at 400 g for 3 min. Supernatant was removed. The cell pellets were resuspended in 20 μl of the antibody or control supernatants. The plate was incubated on ice for 1 hour.
(§3) The cells were washed by adding 200 μl FACS buffer to dilute unbound antibody. The plate was centrifuged at 400 g for 3 min to pellet cells. The supernatant was removed and repeated. The cell pellets were resuspended in 25 μl of either goat anti-Hu IgG Fc-Alexa647, goat anti-Mouse IgG Fc-Alexa647, or goat anti-rabbit IgG0Fc-A647 (2 μg/ml) and 7A.A.D (2.5 μg/ml). The plates were incubated on ice for 0.5 hours. The wash procedure was again repeated 2×. The cell pellets were finally resuspended in 75 μl FACS buffer and read on the HTFC™ Screening System (IntelliCyt Corporation) (3 sec sip, 1.5 up time) and analyzed on the HyperView® software (IntelliCyt Corporation).

human podocalyxin [27] = biological target: T1, human podocalyxin; assay: kinetic exclusion assay (KinExA 3200), A172 cells
human podocalyxin [28] = biological target: T1, human podocalyxin; assay: flow cytometry, supernatant Neat, MDA-MB-231 cells
Procedure: as §1, §2, §3

human podocalyxin [29] = biological target: T1, human podocalyxin; assay: flow cytometry, supernatant 1:125, MDA-MB-231 cells
Procedure: as §1, §2, §3

human podocalyxin [30] = biological target: T1, human podocalyxin; assay: kinetic exclusion assay (KinExA 3200), MDA-MB-231 cells
Procedure: The concentration dependence of free anti-podocalyxin antibody as a function of MDA-MB231 cell number was determined using a KinExA 3200 instrument (Sapidyne Instruments). Briefly, MDA-MB-231 cells, which express endogenous podocalyxin, were titrated 1:2 from 10×10⁶ cells/mL down 12 steps, and incubated with a fixed concentration of anti-podocalyxin antibodies. MDA-MB231 cells and cell bound antibodies were then isolated by centrifugation. Supernatant containing free, unbound antibody was then transferred to a new tube. The supernatant containing free unbound antibody was passed over the column containing PMMA beads coated with a goat anti-IgG-Fc capture antibody. The amount of free antibody captured on the PMMA beads was then measured using a goat anti-IgG-Fc-A647. This process was repeated for every cell concentration. For each sample assayed a new column of PMMA beads with the goat anti-IgG-Fc capture antibody was packed. The concentration of free antibody over the entire 12 step dilution series was then used to determine the antibody Kd's using the standard Kd template in the KineExA Pro Software (Sapidyne Instruments).

human podocalyxin [31] = biological target: T1, human podocalyxin; assay: flow cytometry, supernatant 2:15 (so in the source), MDA-MB-231 cells
Procedure: as §1, §2, §3

human podocalyxin [32] = biological target: T1, human podocalyxin; assay: flow cytometry, supernatant 1:5, hPodo/MDA-MB-231 transient transfectants
Procedure: as §1, §2, §3

human podocalyxin [33] = biological target: T1, human podocalyxin; assay: flow cytometry, supernatant Neat, hPodo/MDA-MB-231 transient transfectants
Procedure: as §1, §2, §3

human podocalyxin [34] = biological target: T1, human podocalyxin; assay: flow cytometry, supernatant 1:125, hPodo/MDA-MB-231 transient transfectants
Procedure: as §1, §2, §3

human podocalyxin [35] = biological target: T1, human podocalyxin; assay: flow cytometry titration on 293-6E cells (endogenous podocalyxin), 24 hours at 4 C
Procedure: (§4) The affinities of huPodo 83 1:1 and huPodo 83 2:1 antibodies were determined against endogenously expressed podocalyxin on 293 HEK cells. 293-6E cells were seeded in 96-well v bottom plates at 100,000 cells/well. The cells were pelleted at 400 g for 3 min and the supernatant was discarded. The cells were placed on ice and antibody 1:3 titrations were prepared using ice cold medium. The cells were resuspended in the prepared antibody titrations at 25 μl/well and incubated at 4° C. for either 24 or 48 hours. 200 μl 1% FBS/PGS (FACS buffer) was added to each well. The cells were pelleted at 400 g for 3 min and supernatant removed. The wash was repeated 2 more times. The cells were resuspended in goat anti-human IgGFc-A647 (2 μg/ml)+2.5 μg/ml 7AAD and incubated on ice for 30 min. The cells were washed as above and resuspended in 50 μl FACS buffer. The cells were analyzed by flow cytometry using the HTFC™ Screening System (IntelliCyt Corporation) (3 sec sip, 1.5 sec up) and the C6 cytometer (Becton Dickenson).

human podocalyxin [36] = biological target: T1, human podocalyxin; assay: flow cytometry titration on 293-6E cells (endogenous podocalyxin), 48 hours at 4 C
Procedure: as §4

human podocalyxin [37] = biological target: T1, human podocalyxin; assay: flow cytometry, supernatant 2:15 (so in the source), hPodo/MDA-MB-231 transient transfectants
Procedure: as §1, §2, §3

Control Rb/HuIgG1 (antibody)
Live cell GeoMean FL (geometric mean fluorescence units) (human podocalyxin [1]): 644 | Live cell GeoMean FL (geometric mean fluorescence units) (human podocalyxin [2]): 657 | Live cell GeoMean FL (geometric mean fluorescence units) (human podocalyxin [3]): 767 | Live cell GeoMean FL (geometric mean fluorescence units) (human podocalyxin [4]): 489 | Live cell GeoMean FL (geometric mean fluorescence units) (human podocalyxin [5]): 667 | Live cell GeoMean FL (geometric mean fluorescence units) (human podocalyxin [6]): 629 | Live cell GeoMean FL (geometric mean fluorescence units) (human podocalyxin [7]): 446 | Live cell GeoMean FL (geometric mean fluorescence units) (human podocalyxin [8]): 653 | Live cell GeoMean FL (geometric mean fluorescence units) (human podocalyxin [9]): 477 | Q2-LR % of gated cells (FL4-H above the gate) (human podocalyxin [10]): 3.5% | Q2-LR % of gated cells (FL4-H above the gate) (human podocalyxin [11]): 17.2%

mlgG1 (antibody)
FACS signal of the biotinylated antibody (human podocalyxin [12]): 419 | FACS signal of the biotinylated antibody named under assay (human podocalyxin [13]): 26600 | FACS signal of the biotinylated antibody named under assay (human podocalyxin [14]): 414 | FACS signal of the biotinylated antibody named under assay (human podocalyxin [15]): 458 | FACS signal of the biotinylated antibody named under assay (human podocalyxin [16]): 124000

Rb IgG (antibody)
flow cytometry fluorescence (name not given) (human podocalyxin [17]): 467 | flow cytometry fluorescence (name not given) (human podocalyxin [18]): 574 | flow cytometry fluorescence (name not given) (human podocalyxin [19]): 431 | flow cytometry fluorescence (name not given) (human podocalyxin [20]): 438 | flow cytometry fluorescence (name not given) (human podocalyxin [21]): 660 | flow cytometry fluorescence (name not given) (human podocalyxin [22]): 762 | flow cytometry fluorescence (name not given) (human podocalyxin [23]): 645 | flow cytometry fluorescence (name not given) (human podocalyxin [24]): 617

MsIgG2a (antibody)
Live cell GeoMean FL (geometric mean fluorescence units) (human podocalyxin [1]): 797 | Live cell GeoMean FL (geometric mean fluorescence units) (human podocalyxin [2]): 1130 | Live cell GeoMean FL (geometric mean fluorescence units) (human podocalyxin [3]): 892 | Live cell GeoMean FL (geometric mean fluorescence units) (human podocalyxin [4]): 484 | Live cell GeoMean FL (geometric mean fluorescence units) (human podocalyxin [25]): 485 | Live cell GeoMean FL (geometric mean fluorescence units) (human podocalyxin [5]): 787 | Live cell GeoMean FL (geometric mean fluorescence units) (human podocalyxin [6]): 708 | Live cell GeoMean FL (geometric mean fluorescence units) (human podocalyxin [7]): 556 | Live cell GeoMean FL (geometric mean fluorescence units) (human podocalyxin [8]): 618 | Live cell GeoMean FL (geometric mean fluorescence units) (human podocalyxin [9]): 478

B1: Rb/Hu Podo83 (Podo83 rabbit VH and VL, human IgG1 chimera) (antibody, V domains shown)
VH: QSLAESGGRLVTPGTPLTLTCTASGIDLSSYAMGWVRQAPGKGLEYIGFIYASGSIFYASWAKGRFTISKTSSTTVDLKMTSLTTEDTATYFCARAGYYFGGNYDLNLWGQGTLVTVSS
VL: DIVLTQTPASVEVAVGGTVTIKCQASQSISNYLAWYQRKPGQPPRLLIYRASTLASGVSSRFKGSGSGTQFTLTISGVECADAATYYCQQGYVSNNLDNIFGGGTEVVVK
notes: Rabbit variable domains cloned into human IgG1 and human Ig kappa constant region constructs (pTT5/IgG1, pTT5/Igk); also called anti-PODO; Ab-1
flow cytometry fluorescence (name not given) (human podocalyxin [26]): 121000 | Kd (human podocalyxin [27]): 0.103 nM | flow cytometry fluorescence (name not given) (human podocalyxin [28]): 143000 | flow cytometry fluorescence (name not given) (human podocalyxin [29]): 50600 | Kd (human podocalyxin [30]): 0.0456 nM | flow cytometry fluorescence (name not given) (human podocalyxin [31]): 102000 | flow cytometry fluorescence (name not given) (human podocalyxin [32]): 99300 | flow cytometry fluorescence (name not given) (human podocalyxin [33]): 79000 | flow cytometry fluorescence (name not given) (human podocalyxin [34]): 58500 | IC50 (human podocalyxin [35]): 0.0295 µg/mL | IC50 (human podocalyxin [36]): 0.0305 µg/mL | flow cytometry fluorescence (name not given) (human podocalyxin [37]): 155000
